# Biological target: AGO2 (UniProt Q9UKV8)
# Experiment: MST
# Details: MST: labeled protein 5-150 nM, ligand 1E-10 to 1E-5 M, 5-15 min, buffer and temperature not stated, pull-down: 150 mM NaCl, 50 mM Tris pH 7.4, 1% Triton X-100 …
# AGO2, sequence (Q9UKV8 whole entry): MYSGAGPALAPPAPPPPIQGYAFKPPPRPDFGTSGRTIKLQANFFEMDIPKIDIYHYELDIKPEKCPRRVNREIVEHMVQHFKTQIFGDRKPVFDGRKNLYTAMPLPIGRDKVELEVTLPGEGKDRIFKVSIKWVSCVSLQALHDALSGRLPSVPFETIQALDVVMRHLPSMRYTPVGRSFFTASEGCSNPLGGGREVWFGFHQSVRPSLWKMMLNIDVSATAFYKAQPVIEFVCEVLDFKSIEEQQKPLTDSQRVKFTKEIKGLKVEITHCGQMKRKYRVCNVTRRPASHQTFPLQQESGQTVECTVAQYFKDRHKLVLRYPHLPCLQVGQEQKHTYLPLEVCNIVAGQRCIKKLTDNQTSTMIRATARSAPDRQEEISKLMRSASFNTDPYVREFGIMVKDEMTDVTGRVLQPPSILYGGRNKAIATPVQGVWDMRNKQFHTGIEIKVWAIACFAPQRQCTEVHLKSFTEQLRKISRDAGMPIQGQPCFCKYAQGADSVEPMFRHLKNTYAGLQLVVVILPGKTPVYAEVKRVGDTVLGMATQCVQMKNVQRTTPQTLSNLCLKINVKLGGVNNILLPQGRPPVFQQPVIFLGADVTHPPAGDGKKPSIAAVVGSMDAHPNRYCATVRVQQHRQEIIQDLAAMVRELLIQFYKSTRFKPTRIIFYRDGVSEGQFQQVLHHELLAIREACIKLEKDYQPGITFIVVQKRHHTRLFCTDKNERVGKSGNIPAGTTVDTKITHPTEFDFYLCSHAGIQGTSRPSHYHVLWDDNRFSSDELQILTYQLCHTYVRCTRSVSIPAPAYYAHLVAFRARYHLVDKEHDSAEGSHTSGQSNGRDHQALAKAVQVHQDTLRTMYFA
substance,measurement,setting,value
3p-hpRNA (5'ppp hairpin RNA),Kd,"no competitor, 5'-triphosphate",205 nM
5'ppp-dsRNA,Kd,5'-triphosphate,2200 nM
5'ppp-dsRNA Control (dsRNA control),Kd,no 5'-triphosphate,2200 nM

# From PMC12424427
